Data taken from patent publication US20200071380A1, “COMBINATION THERAPIES COMPRISING SIRP ALPHA-BASED CHIMERIC PROTEINS” (Shattuck Labs, Inc., priority 2018, published 2020).

Assays:
[1] = Repeat-dose safety and activity study in cynomolgus macaques; type: in vivo; settings: intravenous infusion every week for five weeks, 0.1, 1, 10 and 40 mg/kg
Method: FIG. 21A-D is a graph showing cynomolgus macaques that were treated with vehicle, or 0.1, 1, 10, and 40 mg/kg of SIRPα-Fc-CD40L. Blood chemistry analysis assessed peripheral erythrocyte counts (FIG. 21A), hemoglobin levels (FIG. 21C), and hematocrit (FIG. 21B). In addition, the fold-change in lymphocyte count from pre-dose to 24 hours post-dose is shown (FIG. 21D).
The experiments of this example tested the safety and activity of the human SIRPα-Fc-CD40L chimeric protein following repeat doses in cynomolgus macaques. Briefly, naïve cynomolgus macaques were administered the human SIRPα-Fc-CD40L chimeric protein by intravenous infusion every week, for five consecutive weeks, at doses of 0.1, 1, 10 and 40 mg/kg. Standard hematology and clinical chemistry parameters were collected before and after each dose.
Receptor occupancy was evaluated on circulating CD40+ lymphocytes.

[2] = tested on: CD8+ T cell-depleted PBMC; assay: IL-2 ELISpot of CD8+ T cell-depleted PBMC; type: cell-based, human; settings: day 8 of the culture
Method: (§1) Here, proliferation was assessed via [^3H]-Thymidine incorporation on days 5, 6, and 7. The order of samples (in triplicate) along the X-axis is media only, KLH, Exenatide, 0.3 nm SIRPα-Fc-CD40L, 3 nm SIRPα-Fc-CD40L, 30 nm SIRPα-Fc-CD40L and 300 nm SIRPα-Fc-CD40L. […] Here, proliferation was assessed by ELISpot. The order of samples (in triplicate) along the X-axis is media only, KLH, Exenatide, 0.3 nm SIRPα-Fc-CD40L, 3 nm SIRPα-Fc-CD40L, 30 nm SIRPα-Fc-CD40L and 300 nm SIRPα-Fc-CD40L.
(§2) The observation that SIRPα-Fc-CD40L stimulated CD40 signaling prompted investigation of other cellular functions that depend upon CD40 signaling. CD8+ T cell-depleted PBMC were isolated from a total of 33-50 different human donors and cultured in the presence of a dose-titration of hSIRPα-Fc-CD40L (FIG. 6A and FIG. 6B).

FcγR-IIb = target: T1, FcγR-IIb (Homo sapiens, UniProt P31994); assay: SPR binding to FcγR-IIb; settings: surface plasmon resonance (SPR)
T1 sequence (P31994 43-310): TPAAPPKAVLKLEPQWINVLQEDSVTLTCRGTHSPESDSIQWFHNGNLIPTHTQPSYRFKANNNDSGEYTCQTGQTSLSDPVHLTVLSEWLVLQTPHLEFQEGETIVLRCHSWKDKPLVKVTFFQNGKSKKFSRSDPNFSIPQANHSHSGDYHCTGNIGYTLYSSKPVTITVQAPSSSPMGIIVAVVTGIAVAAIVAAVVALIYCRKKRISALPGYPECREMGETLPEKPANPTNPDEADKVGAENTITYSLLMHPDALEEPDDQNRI
Source text: (§3) The extracellular domain (ECD) of SIRPα and the ECD of CD40L were fused via an antibody Fc domain to generate SIRPαECD-Fc-CD40LECD chimeric proteins. When human proteins were used, the chimeric protein is referred to as hSIRPα-Fc-CD40L; when murine proteins were used, the chimeric protein is referred to as and mSIRPα-Fc-CD40L. Generically, the chimeric protein is referred to as SIRPα-Fc-CD40L. […] Mammalian cells were then transfected with the hSIRPα-Fc-CD40L expressing construct, and the secreted protein was purified from conditioned media by affinity chromatography. The purified protein was then analyzed for the presence of each individual domain by Western blotting using anti-SIRPα, anti-Fc, and anti-CD40L antibodies (FIG. 3A, bottom). […] The reduced and deglycosylated form of the protein migrated at the predicted monomeric molecular weight of 90.1 kDa. […] Next, binding affinities for SIRPα-Fc-CD40L to recombinant CD47, CD40, or Fc receptors were evaluated by surface plasmon resonance (SPR). […] Finally, to confirm that SIRPα-Fc-CD40L interacted with native CD47 and CD40 in a similar manner to recombinant CD47 and CD40, CHOK1-hCD47 and CHOK1-hCD40 reporter cell lines were developed (FIG. 3F). […] A functional ELISA evaluated whether SIRPα-Fc-CD40L could outcompete a commercially available single-sided SIRPα-Fc control for binding to recombinant CD47 (FIG. 3H).

FcγR-IIIb = FcγR-IIIb (Homo sapiens, UniProt O75015); assay: SPR binding to FcγR-IIIb; settings: surface plasmon resonance (SPR)
Chain of FcγR-IIIb (O75015 17-200): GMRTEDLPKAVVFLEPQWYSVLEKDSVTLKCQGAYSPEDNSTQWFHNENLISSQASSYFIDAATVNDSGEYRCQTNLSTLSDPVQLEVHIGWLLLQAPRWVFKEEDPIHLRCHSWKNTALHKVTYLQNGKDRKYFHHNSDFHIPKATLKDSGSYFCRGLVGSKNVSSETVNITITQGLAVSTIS
Source text: as §3

[3] = tested on: CD8+ T cell-depleted PBMC; assay: Proliferation of CD8+ T cell-depleted PBMC ([3H]-thymidine); type: cell-based, human; settings: 0.3, 3, 30, or 300 nM; 7-day culture
Method: as §1, §2

FcγR-Ia = FcγR-Ia (Homo sapiens, UniProt P12314); assay: SPR binding to FcγR-Ia; settings: surface plasmon resonance (SPR)
Chain of FcγR-Ia (P12314 16-374): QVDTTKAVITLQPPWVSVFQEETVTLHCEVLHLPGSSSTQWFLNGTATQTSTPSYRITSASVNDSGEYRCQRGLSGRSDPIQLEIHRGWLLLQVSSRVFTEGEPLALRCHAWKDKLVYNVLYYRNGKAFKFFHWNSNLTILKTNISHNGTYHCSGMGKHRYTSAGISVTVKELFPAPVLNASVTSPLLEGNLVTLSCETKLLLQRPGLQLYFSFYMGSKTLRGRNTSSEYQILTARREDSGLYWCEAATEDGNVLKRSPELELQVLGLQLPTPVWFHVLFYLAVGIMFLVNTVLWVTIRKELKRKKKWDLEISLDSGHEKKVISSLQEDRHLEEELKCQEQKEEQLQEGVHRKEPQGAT
Source text: Scale is shown and yellow arrows correspond with each identified monomer. A schematic of the hexamer species is shown to the right, depicting dimerization of the Fc domain and trimerization of the CD40L domain. […] Recombinant hSIRPα-Fc, hCD40L-Fc, and hIgG1 were used as positive controls. […] In both panels, the CHOK1 Parental is on the left and the CHOK1/hCD47 is on the right. […] For both graphs, the CHOK1 Parental is on the bottom. […] In this figure, the control is the top curve, the SIRPα-Fc-CD40L is the middle curve, and the anti-CD47 is the bottom curve.
The extracellular domain (ECD) of SIRPα and the ECD of CD40L were fused via an antibody Fc domain to generate SIRPαECD-Fc-CD40LECD chimeric proteins. When human proteins were used, the chimeric protein is referred to as hSIRPα-Fc-CD40L; when murine proteins were used, the chimeric protein is referred to as and mSIRPα-Fc-CD40L. […] The purified protein was then analyzed for the presence of each individual domain by Western blotting using anti-SIRPα, anti-Fc, and anti-CD40L antibodies (FIG. 3A, bottom). […] Next, binding affinities for SIRPα-Fc-CD40L to recombinant CD47, CD40, or Fc receptors were evaluated by surface plasmon resonance (SPR). […] A functional ELISA evaluated whether SIRPα-Fc-CD40L could outcompete a commercially available single-sided SIRPα-Fc control for binding to recombinant CD47 (FIG. 3H).

Q: Which hemolysis or thrombocytopenia [1] does the source give for “hSIRPα-Fc-CD40L: Chimeric protein: human SIRPα extracellular domain fused via an antibody Fc domain to human CD40L extracellular domain (SEQ ID NO: 60)” here?
A: no evidence of hemolysis or thrombocytopenia

Q: And the “number of IL-2-secreting PBMC” value [2]?
A: dose-dependent increase in the number of IL-2-secreting PBMC

Q: What about the “binding to FcγR-IIb” value (FcγR-IIb) of the same substance?
A: undetectable binding

Q: What about the “binding to FcγR-IIIb” value (FcγR-IIIb) of the same substance?
A: undetectable binding

Q: What about the “proliferation of human PBMC” value [3] of the same substance?
A: dose-dependent proliferation of human PBMC

Q: What about the “binding to FcγR-Ia” value (FcγR-Ia) of the same substance?
A: undetectable binding
